According to the supplement of paper PMC7877785:
± gives the uncertainty stated by the source.

Test: self-splicing fitness, log relative to wild type (ln ratio); higher = more splicing; Tetrahymena group I intron in knt gene, E. coli kanamycin selection, DiMSum; sequences stand for … in CUCUCU…GGAGGGAAAAGUUAUCAGGCAUGCACCUGGUAGCUAGUCUUUAAACCAAUAGAUUGCAUCGGUUUAAAAGGCAAGACCGUCAAAUUGCGGGAAAGGGGUCAACAGCCGUUCAGUACCAAGUCUCAGGGGAAACUUUGAGAUGGCCUUGCAAAGGGUAUGGUAAUAAGCUGACGGACAUGGUCCUAACCACGCAGCCAAGUCCUAAGUCAACAGAUCUUCUGUUGAUAUGGAUGCAGUUCACAGACUAAAUGUCGGUCGGGGAAGAUGUAUUCUUCUCAUAAGAUAUAGUCGGACCUCUCCUUAAUGGGAGCUAGCGGAUGAAGUGAUGCAACACUGGAGCCGCUGGGAACUAAUUUGUAUGCGAAAGUAUAUUGAUUAGUUUUGGAGUACUCGUGGUCG
Method in brief: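 Six replicate transformations of E. coli BL21(DE3) with a pET-22b(+) library were grown overnight at 37°C or 30°C. The library randomised all eight P1ex-region intron nucleotides, the intron lying in the knt kanamycin-resistance gene, and plates were LB agar with or without 25 μg/mL kanamycin plus 100 μg/mL carbenicillin, 50 μM IPTG and 0.2% rhamnose. Pooled colonies were amplicon-sequenced on an Illumina HiSeq 2500, and fitness is the DiMSum error-weighted combination of wild-type-normalised replicate fold changes, kanamycin versus none.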

Sequence	self-splicing fitness (ln) (30 °C)	self-splicing fitness (ln) (37 °C)
UAAAAGCAAUAUUACGAGGA	-2.79 ± 0.17	-1.54 ± 0.14
UCCUAGCAAUAUUACGUAGA	-2.36 ± 0.05	-0.729 ± 0.069
GCCUAGCAAUAUUACGCGCG	-1.66 ± 0.23	-1.18 ± 0.22
CAGAAGCAAUAUUACGGUGC	-4.16 ± 0.24	-3.04 ± 0.18
GGCGAGCAAUAUUACGGUGC	-2.76 ± 0.16	-1.86 ± 0.23
UUGCAGCAAUAUUACGAACC	-1.76 ± 0.45	–
AGCCAGCAAUAUUACGAAAG	-3.13 ± 0.22	-3.22 ± 0.38
UUGAAGCAAUAUUACGCGUU	-3.35 ± 0.15	-0.906 ± 0.12
GUUCAGCAAUAUUACGACAC	-0.34 ± 0.15	0.897 ± 0.18
GCUAAGCAAUAUUACGAAUU	-2.39 ± 0.18	-0.0664 ± 0.13
CGUUAGCAAUAUUACGCAUA	–	-1.37 ± 0.23
AGUAAGCAAUAUUACGAACU	-2.43 ± 0.19	-0.813 ± 0.15
GAAAAGCAAUAUUACGGCAU	-0.258 ± 0.066	0.329 ± 0.083
UUCCAGCAAUAUUACGAGUC	-2.56 ± 0.13	-1.13 ± 0.15
CCAAAGCAAUAUUACGACCG	-0.022 ± 0.096	-0.0691 ± 0.14
GAAGAGCAAUAUUACGCCCG	-1.59 ± 0.47	–
CUCAAGCAAUAUUACGACAU	-3.206 ± 0.018	-1.9 ± 0.034
ACUGAGCAAUAUUACGGCAG	-1.75 ± 0.12	-0.311 ± 0.15
AUGUAGCAAUAUUACGGUUG	-3.62 ± 0.2	-1.99 ± 0.19
GAGCAGCAAUAUUACGGCGA	-1.21 ± 0.099	-0.604 ± 0.11
AGAAAGCAAUAUUACGCCGU	-0.929 ± 0.11	-0.341 ± 0.13
UCAAAGCAAUAUUACGUAAG	-1.77 ± 0.08	-0.788 ± 0.1
CCGCAGCAAUAUUACGGACA	-4.06 ± 0.46	-2.57 ± 0.17
CUAUAGCAAUAUUACGGUCC	-3.69 ± 0.4	-2.56 ± 0.46
AGGAAGCAAUAUUACGGACA	-0.516 ± 0.12	-0.384 ± 0.15

Sequence	self-splicing fitness (ln) (30 °C)	self-splicing fitness (ln) (37 °C)
UCAGAGCAAUAUUACGUGUC	-4.13 ± 0.31	-2.63 ± 0.23
GGGUAGCAAUAUUACGUAAC	-1.07 ± 0.15	-0.795 ± 0.22
AGUGAGCAAUAUUACGGCCC	-1.16 ± 0.39	–
CAUUAGCAAUAUUACGCACG	-0.832 ± 0.12	0.325 ± 0.14
CAUAAGCAAUAUUACGUCGA	-3.41 ± 0.26	-2.86 ± 0.17
UUACAGCAAUAUUACGCUCU	-1.01 ± 0.074	-0.47 ± 0.087
AGCAAGCAAUAUUACGAGGG	-3.29 ± 0.1	-2.58 ± 0.15
CGCCAGCAAUAUUACGGAGU	-3.79 ± 0.12	-2.7 ± 0.13
AGGGAGCAAUAUUACGGUAG	-4 ± 0.33	–
CCCAAGCAAUAUUACGCAUA	-3.47 ± 0.19	-2.49 ± 0.17
CAAAAGCAAUAUUACGUAGU	-3.12 ± 0.12	-2.76 ± 0.18
UUAUAGCAAUAUUACGAUCC	–	-2.87 ± 0.26
AAUAAGCAAUAUUACGGAUC	-0.855 ± 0.087	-0.124 ± 0.14
AAUUAGCAAUAUUACGUCAG	-1.16 ± 0.14	-1.47 ± 0.24
UGUAAGCAAUAUUACGGAAG	-1.91 ± 0.13	-2.38 ± 0.21
GUAGAGCAAUAUUACGUGUA	-2.77 ± 0.2	-2.53 ± 0.28
UAGUAGCAAUAUUACGGAUA	-2.7 ± 0.26	-0.444 ± 0.14
AUGAAGCAAUAUUACGAUAC	-0.832 ± 0.11	-1.5 ± 0.17
UUAAAGCAAUAUUACGGGUC	-3.44 ± 0.22	-2.48 ± 0.24
CCCGAGCAAUAUUACGCCUU	-2.99 ± 0.2	-1.56 ± 0.34
ACAAAGCAAUAUUACGCAAC	-2.37 ± 0.17	-0.412 ± 0.17
UAGCAGCAAUAUUACGGAAU	-3.87 ± 0.44	-2.13 ± 0.33
CUCUAGCAAUAUUACGGGAG	-3.78 ± 0.19	-2.26 ± 0.19
UCCCAGCAAUAUUACGGUGU	-0.353 ± 0.043	0.504 ± 0.055
CCUAAGCAAUAUUACGCUAA	–	-2.31 ± 0.27
